Consider six molecules from patent publication US20240101645A1 (HENRY M JACKSON FOUNDATION FOR THE ADVANCEMENT OF MILITARY …, published 2024).

The target of experiment [1] is T1, MERS-CoV spike antigens (bead panel) (MERS-CoV, UniProt K9N5Q8 18-1296).
T1 sequence: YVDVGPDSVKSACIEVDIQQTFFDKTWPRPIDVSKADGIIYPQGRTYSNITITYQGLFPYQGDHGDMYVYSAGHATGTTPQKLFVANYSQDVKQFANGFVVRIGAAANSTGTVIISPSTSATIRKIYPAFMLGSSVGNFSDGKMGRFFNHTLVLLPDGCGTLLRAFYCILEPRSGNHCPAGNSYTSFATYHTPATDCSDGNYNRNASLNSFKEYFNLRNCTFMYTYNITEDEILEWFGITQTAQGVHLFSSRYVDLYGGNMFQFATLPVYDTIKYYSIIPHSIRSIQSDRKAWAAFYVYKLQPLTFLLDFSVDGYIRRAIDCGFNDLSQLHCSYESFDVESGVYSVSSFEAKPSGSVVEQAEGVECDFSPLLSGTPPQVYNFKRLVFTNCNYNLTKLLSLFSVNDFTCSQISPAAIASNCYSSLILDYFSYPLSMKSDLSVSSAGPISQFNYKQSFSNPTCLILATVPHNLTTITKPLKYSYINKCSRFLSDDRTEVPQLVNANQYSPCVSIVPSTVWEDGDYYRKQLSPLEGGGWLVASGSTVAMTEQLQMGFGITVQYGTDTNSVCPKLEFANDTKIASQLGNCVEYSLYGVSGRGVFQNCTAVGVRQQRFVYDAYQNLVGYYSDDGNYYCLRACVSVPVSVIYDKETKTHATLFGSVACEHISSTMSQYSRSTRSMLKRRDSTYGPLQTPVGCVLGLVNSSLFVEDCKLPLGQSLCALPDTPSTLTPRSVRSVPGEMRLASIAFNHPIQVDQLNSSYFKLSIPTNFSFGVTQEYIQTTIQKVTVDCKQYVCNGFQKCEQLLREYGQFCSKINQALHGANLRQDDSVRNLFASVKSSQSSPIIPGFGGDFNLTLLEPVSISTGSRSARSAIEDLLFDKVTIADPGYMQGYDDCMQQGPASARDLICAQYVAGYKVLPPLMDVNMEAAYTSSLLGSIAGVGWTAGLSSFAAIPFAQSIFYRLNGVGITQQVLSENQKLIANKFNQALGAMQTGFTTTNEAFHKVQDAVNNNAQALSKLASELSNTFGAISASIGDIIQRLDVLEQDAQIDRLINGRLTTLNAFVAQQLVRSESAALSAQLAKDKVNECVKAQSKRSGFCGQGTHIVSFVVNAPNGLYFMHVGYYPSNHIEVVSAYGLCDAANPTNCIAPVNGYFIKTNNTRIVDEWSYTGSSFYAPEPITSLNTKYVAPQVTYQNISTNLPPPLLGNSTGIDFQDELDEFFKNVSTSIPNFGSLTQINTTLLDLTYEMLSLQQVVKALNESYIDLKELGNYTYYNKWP
The experiment can be described thus: multiplex bead assay.

The target in experiment [2] is T2, HCoV-229E spike antigens (bead panel) (HCoV-229E, UniProt P15423 16-1115).
T2 sequence: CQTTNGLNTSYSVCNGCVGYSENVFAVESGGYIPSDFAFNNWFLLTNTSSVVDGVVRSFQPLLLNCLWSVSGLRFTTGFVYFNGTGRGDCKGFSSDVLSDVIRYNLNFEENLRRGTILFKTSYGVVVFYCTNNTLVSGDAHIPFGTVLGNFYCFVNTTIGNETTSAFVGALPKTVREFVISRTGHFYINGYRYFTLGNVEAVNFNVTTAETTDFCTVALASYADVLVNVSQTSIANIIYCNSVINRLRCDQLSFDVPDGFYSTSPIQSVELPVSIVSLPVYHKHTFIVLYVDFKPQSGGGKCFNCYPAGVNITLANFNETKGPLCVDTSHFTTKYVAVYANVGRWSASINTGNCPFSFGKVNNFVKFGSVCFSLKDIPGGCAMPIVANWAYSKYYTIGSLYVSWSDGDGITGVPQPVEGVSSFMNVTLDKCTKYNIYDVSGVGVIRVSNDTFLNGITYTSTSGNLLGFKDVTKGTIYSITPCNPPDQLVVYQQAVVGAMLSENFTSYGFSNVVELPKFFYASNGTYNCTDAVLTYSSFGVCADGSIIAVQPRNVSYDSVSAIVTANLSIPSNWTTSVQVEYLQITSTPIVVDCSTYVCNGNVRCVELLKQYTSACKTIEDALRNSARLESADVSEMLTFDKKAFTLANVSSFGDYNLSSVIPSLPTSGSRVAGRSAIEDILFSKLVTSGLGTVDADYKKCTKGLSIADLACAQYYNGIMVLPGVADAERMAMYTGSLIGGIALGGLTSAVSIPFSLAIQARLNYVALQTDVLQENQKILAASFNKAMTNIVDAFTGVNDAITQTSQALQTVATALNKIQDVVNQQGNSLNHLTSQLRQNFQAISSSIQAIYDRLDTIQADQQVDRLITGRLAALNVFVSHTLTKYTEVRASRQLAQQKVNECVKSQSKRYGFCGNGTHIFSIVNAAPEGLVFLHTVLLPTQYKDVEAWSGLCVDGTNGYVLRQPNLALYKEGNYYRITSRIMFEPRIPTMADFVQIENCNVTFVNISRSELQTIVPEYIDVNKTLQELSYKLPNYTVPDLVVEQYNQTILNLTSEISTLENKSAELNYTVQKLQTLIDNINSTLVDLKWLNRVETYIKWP
Briefly: multiplex bead assay.

The target in experiment [3] is T3, HCoV-HKU1 spike antigens (bead panel) (HCoV-HKU1, UniProt Q5MQD0 13-1300).
T3 sequence: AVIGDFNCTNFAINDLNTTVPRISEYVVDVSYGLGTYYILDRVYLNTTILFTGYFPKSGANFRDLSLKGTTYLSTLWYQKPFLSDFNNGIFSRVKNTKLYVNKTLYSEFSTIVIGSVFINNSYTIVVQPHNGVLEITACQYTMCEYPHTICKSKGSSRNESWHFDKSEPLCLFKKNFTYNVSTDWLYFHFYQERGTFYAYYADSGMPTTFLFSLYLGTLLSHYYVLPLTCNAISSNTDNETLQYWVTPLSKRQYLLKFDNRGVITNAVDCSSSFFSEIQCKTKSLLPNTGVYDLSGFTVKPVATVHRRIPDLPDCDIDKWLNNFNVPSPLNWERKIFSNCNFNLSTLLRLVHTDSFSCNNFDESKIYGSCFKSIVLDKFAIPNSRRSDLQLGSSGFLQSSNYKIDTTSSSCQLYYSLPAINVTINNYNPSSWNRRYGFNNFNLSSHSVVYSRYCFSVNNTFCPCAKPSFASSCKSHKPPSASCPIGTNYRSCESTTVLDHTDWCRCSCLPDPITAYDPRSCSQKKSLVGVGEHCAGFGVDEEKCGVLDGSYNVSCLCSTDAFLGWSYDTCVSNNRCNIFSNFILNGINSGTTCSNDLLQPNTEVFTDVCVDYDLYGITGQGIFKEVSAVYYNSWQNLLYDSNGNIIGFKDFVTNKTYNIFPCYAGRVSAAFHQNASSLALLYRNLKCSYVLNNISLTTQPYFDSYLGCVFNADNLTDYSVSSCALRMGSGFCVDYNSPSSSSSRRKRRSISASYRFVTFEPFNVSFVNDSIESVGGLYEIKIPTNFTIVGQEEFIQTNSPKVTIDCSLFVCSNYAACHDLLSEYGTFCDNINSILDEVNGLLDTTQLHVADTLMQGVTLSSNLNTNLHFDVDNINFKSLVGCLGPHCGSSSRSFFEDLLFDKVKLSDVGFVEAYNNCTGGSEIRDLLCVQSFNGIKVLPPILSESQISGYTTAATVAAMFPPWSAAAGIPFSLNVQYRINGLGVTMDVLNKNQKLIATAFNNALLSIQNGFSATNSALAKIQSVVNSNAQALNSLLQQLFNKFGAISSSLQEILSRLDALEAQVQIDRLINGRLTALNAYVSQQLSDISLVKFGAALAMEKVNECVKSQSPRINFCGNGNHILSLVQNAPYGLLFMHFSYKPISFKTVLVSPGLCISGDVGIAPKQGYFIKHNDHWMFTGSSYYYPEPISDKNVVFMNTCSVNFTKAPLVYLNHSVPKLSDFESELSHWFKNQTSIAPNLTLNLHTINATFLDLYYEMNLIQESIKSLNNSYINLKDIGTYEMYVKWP
Briefly: multiplex bead assay.

The target of experiment [4] is SARS-CoV-2 S on pseudovirions (Wuhan Hu-1 / IL1/2020, last 18 amino acids removed) (SARS-CoV-2, UniProt P0DTC2 14-1273). Briefly: cell-based or functional assay.
Experiment [5] has as its target SARS-CoV-1 spike antigens (bead panel) (SARS-CoV-1, UniProt P59594 14-1195). The experiment can be described thus: multiplex bead assay.

B1: COV_1116 (antibody, V domains shown)
VH: EVQLVESGGGLVKPGGSLRLSCAASGFTFSSYSMNWVRQAPGKGLEWVSSISSSNAYIYSADSVKGRFTISRDNAKNSLYLQMNSLRADDTAVYYCARGGRGLSSSPGRLDYYYGLDVWGQGTTVTVSS
VL: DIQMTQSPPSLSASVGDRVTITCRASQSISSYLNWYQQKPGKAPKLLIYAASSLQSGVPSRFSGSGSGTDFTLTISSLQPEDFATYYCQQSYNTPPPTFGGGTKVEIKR
notes: human IgG1
Regarding B1, the binding result in experiment [1], in experiment [2] and in experiment [3] was “no binding” each time. In addition, the “Mean IC50, pSV neutralization” value in experiment [4] is 6.99 µg/ml. The “Mean IC80, pSV neutralization” value in experiment [4] was at least 25 µg/ml.

B2: COV_2064 (antibody, V domains shown)
VH: EVQLVESGGGLVQPGGSLRLSCTASGFTFNNNWMHWVRQVPGKGLVWVSRINTDESSTSYADSVKGRFIISRDNAKNTLYLQMNSLRVEDTAVYYCARSTAQYDIWTGYYYYMDVWGKGTTVTVSS
VL: DIQMTQSPSTLSASVGDRVTISCRASQSISTWLAWYQQKPGKAPNLLIYGASNLGSGVPSRFSGGGSGTEFTLTISSLQSDDFATYYCQRYNSFPYTFGQGTKLEIKR
notes: human IgG1
As to B2, the binding result in experiment [1], in experiment [2] and in experiment [3] was “no binding” in each case. The “Mean IC50, pSV neutralization” value in experiment [4] is at least 25 µg/ml. Also, in experiment [4], the “Mean IC80, pSV neutralization” value was at least 25 µg/ml.

B3: COV_1131 (antibody, V domains shown)
VH: QVQLQESGPGLVKPSETLSLTCSVSGGSISSYYWSWIRQPPGKGLEWIGYISYSGSTNYNPSLKSRVTISVDTSKNQFSLKLSSVTAADTAVYYCARLGFGGIYPSLYDAFDIWGQGTMVTVSS
VL: DIQMTQSPSSLSASVGDRVTITCRASQTISSYLNWYQQKPGKAPNLLIYDASSLQRGVPSRFSGSGSGTDFTLTISSLQPEDFATYYCQQSYSTPRTFGQGTKVEIKR
notes: human IgG1
B3: the binding result in experiment [1], in experiment [2] and in experiment [3] was “no binding” in each case. In experiment [4], the “Mean IC50, pSV neutralization” value is at least 25 µg/ml. The “Mean IC80, pSV neutralization” value in experiment [4] was at least 25 µg/ml.

B4: COV_1063 (antibody, V domains shown)
VH: EEKLVESGGDLVQPGGSLRISCEVSGFSLSKYWMNWVRQAPGKGLQWVANIEEDGSERNYADSVKGRFTISRDNARNSLYLQMNSLRVEDTAVYLCTAGHYAGPWGWGQGTLVTVSS
VL: DIQMTQSPSSLSASVGDRVTVTCRASQDIGHYLAWYQQKPGKTPNLLIYDAFNLESGVPPRFGGSGSGTDFTLTISSLQPEDAATYYCQKYDSVPWTFGQGTKVEIKR
notes: human IgG1
In the case of B4, the binding result in experiment [5] is listed as “no binding”. In addition, in experiment [4], the “Mean IC50, pSV neutralization” value is at least 25 µg/ml and the “Mean IC80, pSV neutralization” value was at least 25 µg/ml.

B5: COV_1032 (antibody, V domains shown)
VH: QVHLQESGPGLVKPSETLSLTCTVSGGSISSYYWSWIRQPPGKGLEWIGYIYDSGSTNYNPSLKSRVTISVDTSKNQFSLKLSSVTAADTAVYYCARSVRGVTIDYWGQGTLVTVSS
VL: DIQMTQSPSSLSASVGDRVTITCRASQSISNSISSYLNWYQKKPGKAPKLLIYAASSLQSGVPSRFSGSGSGTDFTLTISSLQPEDFATYYCQQSYSTPTTFGQGTKVEIKR
notes: human IgG1
With B5, the binding result in experiment [1] and in experiment [2] was “no binding” in each case. For the same molecule, the “Mean IC50, pSV neutralization” value in experiment [4] is 2.5 µg/ml. Moreover, the “Mean IC80, pSV neutralization” value in experiment [4] was at least 25 µg/ml.

B6: COV_2055 (antibody, V domains shown)
VH: EVQLVESGGGVVQPGRSLRLSCAASGFTLSSYGMHWVRQAPGKGLEWVAVISYEGSNKHYADSVKGRFTISRDNSKNTLYLQMNSLRAEDTAVYYCAKGSTNYFDHWGQGTLVTVSS
VL: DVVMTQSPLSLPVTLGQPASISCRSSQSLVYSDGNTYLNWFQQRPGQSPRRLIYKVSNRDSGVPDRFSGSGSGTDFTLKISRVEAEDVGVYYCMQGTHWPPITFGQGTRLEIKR
notes: human IgG1
With B6, the binding result in experiment [1] and in experiment [2] was “no binding” each time.
